# Source: the RNAGym collection of RNA variant scans (doi:10.7554/elife.80360)
# B1: Hairpin Ribozyme (parent)
# chain: GUCCUCUUUCACGUGCGCGUGAAAGAGAGAAGUGAACCAGAGAAACACACGUUGUGGUAUAUUACCUGGUA
# Variants of: B1
# Assay: self-cleavage, relative activity (ratio to wild type); higher = more cleavage; co-transcriptional
row,Variant,self-cleavage
1,A11U A64G,0.588
2,A11U A64U,0.152
3,A11U A64C,0.175
4,A11U A71U,0.701
5,G13A U60C,1.25
6,G13A G40C,0.152
7,G13A G15A,0.839
8,C12A U52C,0.768
9,C12A U52A,0.763
10,G13C A36U,0.4
11,G13C A36G,0.816
12,A11U A39U,0.309
13,A11U A39C,0.495
14,C12A A30G,0.206
15,C12A A30U,0.172
16,C12G G56C,0.154
17,A11U A22G,0.755
18,G13A G21U,0.742
19,G13A U52A,1.01
20,G13A U52G,0.5
21,G13A U52C,0.625
22,C12G U58C,0.762
23,C12G U58G,0.502
24,A11U A28G,0.929

row,Variant,self-cleavage
1,C12G G69C,0.355
2,A11U G56A,0.176
3,A11U G56U,0.131
4,C12U G69U,0.153
5,C12U G69C,0.367
6,C12U G69A,0.406
7,C12A C16A,0.964
8,C12G A31U,0.152
9,C12G A31G,0.455
10,C12A G57C,0.17
11,A11U G32C,0.144
12,A11U G51U,0.805
13,A11U G51A,0.799
14,C12U A41U,0.928
15,C12U A30G,0.173
16,C12A G42A,0.168
17,A11U C38G,0.128
18,C12U A26C,0.481
19,C12U A26G,0.796
20,C12U A26U,0.591
21,C12U C48A,0.107
22,C12G U67A,0.202
23,C12G U67G,0.215
24,C12U C18U,0.978

row,Variant,self-cleavage
1,C12U C18G,0.832
2,C12G C66A,0.171
3,C12A A47G,0.0872
4,C12A A47U,0.132
5,C12A G54A,0.485
6,C12G C50G,0.176
7,G13A G51C,0.68
8,C12A A71G,0.848
9,G13A U53A,0.856
10,A11U U53A,0.679
11,C12A C65U,0.309
12,C12G G25A,0.524
13,G13A A30U,0.113
14,G13A A30C,0.0871
15,C12A U60G,0.459
16,C12A U60C,0.893
17,C12A U60A,0.621
18,A11U U70C,0.848
19,C12G G40C,0.117
20,C12G G40U,0.113
21,A11U G42C,0.271
22,A11U G42U,0.171
23,C12G A49C,0.196
24,C12U U14C,1.05

row,Variant,self-cleavage
1,G13A C50A,0.284
2,C12U G17U,0.69
3,C12U A39G,0.297
4,C12A G34C,1.17
5,C12G G42A,0.276
6,A11U C37A,0.228
7,A11G U60G,0.565
8,G13A U62C,0.242
9,G13C A30G,0.114
10,C12U G54A,0.587
11,C12A A49G,0.474
12,C12A A49U,0.256
13,G13A U67C,0.27
14,G13A U67A,0.27
15,C12G G29A,0.138
16,C12G A26G,0.75
17,C12A A44U,0.186
18,C12A U55A,0.288
19,A11U U62C,0.187
20,C12A G21U,0.752
21,C12A G21C,0.808
22,C12G U62G,0.21
23,C12A U70A,0.673
24,A11G U33G,0.131

row,Variant,self-cleavage
1,G13A A41C,1.04
2,G13A A28C,0.258
3,G13A A28U,0.495
4,C12G G13U,0.561
5,C12G G13C,0.944
6,A11G U14C,0.952
7,A11U C66A,0.139
8,A11U C48G,0.0875
9,G13A G56U,0.137
10,A11U A30U,0.133
11,C12A C50U,0.399
12,C12G U33A,0.0646
13,C12G A36U,0.517
14,A11U A44U,0.22
15,A11U A44G,0.144
16,C12U A36C,0.674
17,A11G U63A,0.116
18,C12A U62G,0.143
19,A11U A41G,0.495
20,C12A A26C,0.393
21,G13A A59C,0.196
22,G13A A59U,0.241
23,C12U U53G,0.677
24,C12U U53A,0.974

row,Variant,self-cleavage
1,A11U G27C,0.184
2,A11U U67G,0.287
3,A11U A26G,0.751
4,A11U A26U,0.775
5,G13A C16A,0.82
6,G13A C16U,1.03
7,G13A C16G,0.593
8,C12A G27A,0.378
9,C12A G27U,0.249
10,C12A G69U,0.251
11,C12A G69C,0.275
12,C12G U55C,0.216
13,C12G U55G,0.322
14,C12A A22C,0.575
15,A11U A61G,0.176
16,C12U C37A,0.282
17,A11G U55G,0.223
18,C12U G21A,0.748
19,C12U A35U,0.743
20,C12U G56A,0.177
21,C12A G13U,0.673
22,G13A C65A,0.743
23,C12G A43U,0.196
24,C12G A43C,0.125

row,Variant,self-cleavage
1,C12G A43G,0.139
2,C12G G57A,0.152
3,G13A G57A,0.175
4,G13A G57C,0.164
5,C12U U62G,0.235
6,C12U U55G,0.181
7,C12U U55C,0.218
8,G13A U58G,0.594
9,G13A U58A,0.574
10,A11U A59G,0.0747
11,A11U G13A,0.672
12,A11U U55G,0.339
13,A11U U55C,0.118
14,C12A C18G,0.872
15,C12A C18U,0.834
16,A11G G69C,0.267
17,A11U U63C,0.122
18,C12G A44C,0.202
19,A11G G68A,0.277
20,C12G C48G,0.0599
21,C12G C48U,0.193
22,C12G C38G,0.142
23,C12G C38A,0.148
24,C12A A39C,0.397

row,Variant,self-cleavage
1,C12U G42A,0.149
2,C12U G42U,0.355
3,A11U C16G,0.653
4,A11U C16A,0.696
5,C12U G25A,0.482
6,C12G A35U,0.731
7,C12G A35C,0.74
8,C12A G19C,0.944
9,G13A G25A,0.484
10,C12A U33A,0.158
11,A11U G68U,0.292
12,A11U G68C,0.13
13,A11U C18G,0.812
14,A11U C18U,1.12
15,C12U A44C,0.184
16,G13A A36U,0.491
17,C12U A24G,0.892
18,C12U A24C,0.721
19,A11U A31C,0.152
20,A11U A31G,0.464
21,C12U A28C,0.437
22,C12U A28U,0.583
23,C12U A28G,1.19
24,A11U A49G,0.558

row,Variant,self-cleavage
1,C12U U20A,0.695
2,C12U U20C,0.894
3,C12A A24G,0.676
4,C12A A24C,0.914
5,C12U A23U,0.807
6,C12U A23G,0.965
7,G13A G69U,0.24
8,G13A G69A,0.368
9,C12U C38A,0.143
10,G13C A43C,0.0516
11,C12G U52A,0.922
12,A11U G19C,0.687
13,A11U G19A,0.79
14,C12U U58C,1
15,A11U A24C,0.211
16,C12G U14C,0.61
17,C12U A59U,0.182
18,C12U A59G,0.116
19,A11G G56U,0.105
20,A11U G54U,0.565
21,C12A U53A,0.785
22,C12A U53G,0.587
23,G13A G42A,0.194
24,C12A U58C,0.686

row,Variant,self-cleavage
1,C12A U58A,0.733
2,C12A G56C,0.0797
3,C12A G56U,0.159
4,A11G U52C,0.944
5,A11U C46U,0.0973
6,G13C A26G,0.492
7,C12G G32A,0.143
8,C12A A61G,0.174
9,A11U U52G,0.362
10,G13A A23G,0.767
11,C12G A39U,0.32
12,C12G G27C,0.226
13,C12G G21A,0.683
14,C12U G32U,0.082
15,C12U C50A,0.314
16,C12U C50U,0.431
17,A11G G57A,0.159
18,A11G G57U,0.392
19,C12U A31U,0.112
20,C12G A45U,0.116
21,A11U C65A,0.719
22,C12A A59C,0.149
23,C12A A59U,0.176
24,G13C A39G,0.186

row,Variant,self-cleavage
1,G13C A39C,0.59
2,C12U U63A,0.249
3,G13A G29U,0.116
4,C12G A71G,0.803
5,C12G U20G,0.798
6,C12A A28G,0.836
7,C12A A28C,0.531
8,A11U C50U,0.36
9,C12U G15C,0.897
10,C12G A61C,0.24
11,C12A A31U,0.104
12,C12A G51A,0.898
13,A11G G42U,0.314
14,G13A A71U,0.746
15,C12U U33G,0.207
16,C12U U33A,0.205
17,G13A C46G,0.0618
18,G13A C46A,0.124
19,C12A A64C,0.101
20,C12A A64G,0.411
21,C12G A59C,0.076
22,C12U G27U,0.199
23,C12A C66A,0.259
24,C12A C66G,0.208

row,Variant,self-cleavage
1,G13A U63A,0.194
2,A11U G29U,0.0998
3,A11U G29C,0.0923
4,C12G U70C,0.699
5,C12U A61C,0.24
6,C12A U63A,0.102
7,C12A U63G,0.213
8,C12G C37U,0.445
9,C12U U60A,0.766
10,A11U A43U,0.078
11,C12A C48U,0.112
12,C12A G15C,0.837
13,C12A G15U,0.805
14,C12A G15A,0.801
15,C12U G68U,0.27
16,C12U G68A,0.259
17,G13A U55A,0.333
18,C12U A71G,0.797
19,A11U U20A,0.874
20,A11U U20C,1.11
21,A11U U20G,0.907
22,G13C A24C,0.466
23,C12A A36G,0.956
24,G13A U14G,0.538

row,Variant,self-cleavage
1,G13A U14A,0.99
2,G13A U14C,0.855
3,A11U G34C,1.43
4,A11U G34A,1.13
5,C12A C38A,0.18
6,A11U G57C,0.182
7,C12G A41U,1.25
8,A11U G21A,0.586
9,A11U G21U,0.915
10,C12G U63C,0.296
11,C12U G19A,1.02
12,C12G A28C,0.561
13,C12G A28U,0.57
14,C12U C65U,0.348
15,C12U C65G,0.2
16,C12U C65A,0.88
17,A11G U20G,0.982
18,A11G U20C,0.857
19,G13A C18G,0.761
20,G13A C18U,1.1
21,C12G U60A,0.748
22,A11G U58A,0.557
23,A11G U58C,0.81
24,G13A A31G,0.515

row,Variant,self-cleavage
1,G13A A31C,0.11
2,C12A G29U,0.201
3,C12A G29A,0.162
4,C12A G29C,0.0897
5,C12G G17C,0.842
6,A11U A35C,0.86
7,A11U A35G,0.867
8,C12A U20G,0.732
9,C12G G54C,0.246
10,C12G G54U,0.537
11,C12U A64U,0.241
12,C12U A64G,0.564
13,G13C A22U,0.528
14,G13A A35C,0.739
15,A11G U70A,0.627
16,A11G U70C,0.952
17,C12A G32C,0.0893
18,C12G A64C,0.334
19,C12G A64U,0.173
20,A11U U33C,0.152
21,A11U U33G,0.151
22,G13A A43G,0.0659
